Values belong to the binder of their own block, whether it stands above or below them.
How the values were obtained:
[1] = target: alpha-carboxyltransferase (α-CT) subunit of hetACCase, AT2G38040, Arabidopsis thaliana (Arabidopsis thaliana) (UniProt Q9LD43); assay: co-IP from A. thaliana chloroplast lysate with anti-α-CT polyclonal antibody, LC-MS/MS
[2] = target: the molecule itself; assay: intact mass analysis and non-reducing SDS-PAGE of purified recombinant protein (only a monomer band)
[3] = target: heteromeric acetyl-coenzyme A carboxylase (hetACCase) of Arabidopsis thaliana, in silique or leaf extracts (Arabidopsis thaliana) (UniProt O04983); assay: inhibition of ACCase activity in 20-day-old A. thaliana leaf extracts with increasing recombinant BADC1, polynomial fit
[4] = target: T1, beta-carboxyltransferase (β-CT) subunit of hetACCase, ATCG00500, Arabidopsis thaliana (Arabidopsis thaliana, UniProt P56765 1-488); assay: co-IP from A. thaliana chloroplast lysate with anti-BCCP2 polyclonal antibody, LC-MS/MS
T1 construct: Native protein in chloroplast lysate
T1 sequence (looked up): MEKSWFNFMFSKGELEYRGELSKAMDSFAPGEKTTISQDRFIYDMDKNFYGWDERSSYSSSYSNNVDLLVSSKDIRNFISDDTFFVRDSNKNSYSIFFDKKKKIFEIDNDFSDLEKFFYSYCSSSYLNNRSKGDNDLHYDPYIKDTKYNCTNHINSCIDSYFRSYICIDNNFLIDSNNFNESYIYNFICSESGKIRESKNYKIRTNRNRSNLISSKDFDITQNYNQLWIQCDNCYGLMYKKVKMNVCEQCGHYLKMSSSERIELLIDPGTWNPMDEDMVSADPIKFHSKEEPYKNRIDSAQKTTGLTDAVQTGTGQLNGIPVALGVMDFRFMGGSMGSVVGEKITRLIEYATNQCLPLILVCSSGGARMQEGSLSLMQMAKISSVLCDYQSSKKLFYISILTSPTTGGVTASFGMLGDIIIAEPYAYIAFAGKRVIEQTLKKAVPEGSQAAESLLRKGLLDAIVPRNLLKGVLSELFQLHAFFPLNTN
Protocol: For co-innmunoprecipitation of hetACCase from Arabidopsis seedlings, crude chloroplasts were isolated from approximately 10 g 14-d-old A. thaliana seedlings after 1 h light exposure. Fresh leaves were homogenized in ice-cold grinding buffer (50 mM HEPES-KOH pH 8.0, 330 mM sorbitol, 1.5 mM MnCl₂, 2 mM MgCl₂, 2 mM EDTA, 0.1% (w/v) BSA) using a Waring blender. Homogenate was filtered through two layers of Miracloth and centrifuged at 2,600 g at 4° C. for 20 min. Chloroplasts were lysed for 30 min in ice-cold lysis buffer (50 mM HEPES-KOH pH 8.0, 10% (v/v) glycerol, 0.5% (v/v) Triton X-100). Lysates were homogenized ten times in a Dounce homogenizer on ice and then centrifuged at 30 k g for 20 min at 4° C. Then, 1 mL of the 30 k g supernatant was added to 25 μL Protein A-Sepharose beads (Sigma Aldrich) either uncoated (control) or coated with antibody specific for α-CT, BCCP, BADC1, or BADC2. Co-immunoprecipations (co-IP) were carried out at 4° C. for 3 h with gentle mixing. The heads were washed twice with 1 mL ice-cold lysis buffer and precipitated protein was eluted by adding 30 μL 6×SDS sample buffer (350 mM Tris-HCl, pH 6.8, 350 mM SDS, 30% (v/v) glycerol, 100 mM dithiothreitol, 2.5 mM bromophenol blue) and heating at 65° C. for 10 min. Eluted proteins were resolved on 10% SDS-PAGE gels for western and mass spectrometry analysis. […]

alpha-carboxyltransferase (α-CT) subunit of hetACCase, AT2G38040, Arabidopsis thaliana (Arabidopsis thaliana), sequence (Q9LD43 55-769): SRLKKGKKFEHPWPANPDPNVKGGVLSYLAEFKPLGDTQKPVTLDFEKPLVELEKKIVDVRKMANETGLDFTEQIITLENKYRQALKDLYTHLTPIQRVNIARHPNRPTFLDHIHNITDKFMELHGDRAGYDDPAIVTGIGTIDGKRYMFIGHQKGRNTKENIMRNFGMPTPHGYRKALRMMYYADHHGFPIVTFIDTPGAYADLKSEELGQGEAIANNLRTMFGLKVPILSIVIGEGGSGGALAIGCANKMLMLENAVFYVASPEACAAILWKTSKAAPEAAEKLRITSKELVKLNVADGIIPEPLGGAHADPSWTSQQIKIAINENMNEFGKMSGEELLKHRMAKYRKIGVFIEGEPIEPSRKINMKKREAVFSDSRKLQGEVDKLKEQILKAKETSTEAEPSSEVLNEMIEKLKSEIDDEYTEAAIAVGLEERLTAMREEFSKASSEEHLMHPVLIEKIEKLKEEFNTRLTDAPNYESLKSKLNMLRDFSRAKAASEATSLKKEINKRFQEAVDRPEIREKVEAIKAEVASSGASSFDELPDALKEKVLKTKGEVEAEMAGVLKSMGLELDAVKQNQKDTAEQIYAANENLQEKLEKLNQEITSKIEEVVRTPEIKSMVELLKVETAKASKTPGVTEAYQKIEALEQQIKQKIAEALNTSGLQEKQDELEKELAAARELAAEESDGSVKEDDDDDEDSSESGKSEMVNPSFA

B1: BADC2 (Single hybrid motif protein, AT1G52670), Arabidopsis thaliana (other)
chain: TTLRSVKAIQLSTVPPAETEAIADVKDSDETKSTVVNTHLMPKSSEVEALISEITDSSSIAEFELKLGGFRLYVARKLTDESSPPPQQIQPVVAASATPEGVHTNGSATSSSLAITKTSSSSADRPQTLANKAADQGLVILQSPTVGYFRRSKTIKGKRTPTICKEKDIVKEGQVLCYIEQLGGQIPVESDVSGEIVKILREDGEPVGYNDALITVLPSFPGIKKLQ
notes: Native protein in chloroplast lysate for the co-IPs; Recombinant and two-hybrid constructs lack the TargetP-predicted transit peptide; His-tagged or untagged in co-expression; also called AtBADC2; NP_564612.1
replicates of the co-IP in which the protein was present (of seven) [1]: 2 replicates
binding result [2]: no binding

Ki [3]: 4.3 µM
B2: BADC1 (biotin/lipoyl attachment domain-containing protein, AT3G56130), Arabidopsis thaliana (protein)
chain: AKAAKSSTTTISDGSSDASVSDGKKTVRRITFPKEVEALVHEMCDETEVAVLQLKVGDFEMNLKRKIGAATNPIPVADISPTVAPPIPSEPMNKSASSAPSPSQAKPSSEKVSPFKNTSYGKPAKLAALEASGSTNYVLVTSPAVGKFQRSRTVKGKKQSPSCKEGDAIKEGQVIGYLHQLGTELPVTSDVAGEVLKLLSDDGDSVGYGDPLVAVLPSFHDINIQ
replicates of the co-IP in which the protein was present (of seven) [1]: 1 replicates

binding result [4]: no binding
B3: BCCP2 (biotin carboxyl carrier protein 2 subunit of hetACCase, AT5G15530), Arabidopsis thaliana (other, UniProt Q9LLC1 88-255, looked up)
chain: EFMAKVSGLLKLVDSKDIVELELKQLDCEIVIRKKEALQQAVPPAPVYHSMPPVMADFSMPPAQPVALPPSPTPTSTPATAKPTSAPSSSHPPLKSPMAGTFYRSPGPGEPPFVKVGDKVQKGQIVCIIEAMKLMNEIEAEKSGTIMELLAEDGKPVSVDTPLFVIAP
modifications: biotinylated (residue not given)
notes: Native protein in chloroplast lysate for the co-IPs; Recombinant and two-hybrid constructs lack the TargetP-predicted transit peptide; also called AtBCCP2; NP_568316.1

Source: patent publication US20210171970A1 (CURATORS OF THE UNIVERSITY OF MISSOURI, published 2021)
